Data as given in patent publication US20100150950A1, “HUMAN ANTIBODIES THAT BIND CD70 AND USES THEREOF” (Medarex, Inc., priority 2006, published 2010).

Tests used:
[1] = test system: activated T cells; assay: ADCC fluorescence cytotoxicity assay, activated T cells; type: cell-based, human
Procedure: In this example, a defucosylated and non-defucosylated anti-CD70 monoclonal antibody was tested for the ability to kill activated T cells in the presence of effector cells via antibody dependent cellular cytotoxicity (ADCC) in a fluorescence cytotoxicity assay.
Human Anti-CD70 monoclonal antibody 2H5 was defucosylated as described above. Human effector cells were prepared as described above. Human spleen T cells were positively selected with anti-CD3 coated magnetic beads (Purity>90%). The cells were stimulated with anti-CD3 and anti-CD28 coated beads and 25 ng/ml IL-2 in Iscove's media+10% heat inactivated FCS for 6 days. Cells were collected and assayed for viability by propidium iodide incorporation (60% viable) and live cells were gated and analyzed for CD70 expression (˜65% CD70+ on live cells) prior to inclusion in ADCC assays.
The activated T cells were tested for antibody specific ADCC to the defucosylated and non-defucosylated human anti-CD70 monoclonal antibody 2H5 using the Delfia fluorescence emission analysis as follows. […] Following a 2100 rpm pulse spin and one hour incubation at 37° C., the supernatants were collected, quick spun again and 20 μl of supernatant was transferred to a flat bottom plate, to which 180 μl of Eu solution (Perkin Elmer, Wellesley, Mass.) was added and read in a Fusion Alpha TRF plate reader (Perkin Elmer). […]

[2] = test system: ARH-77 cells; assay: ADCC fluorescence cytotoxicity assay, ARH-77; type: cell-based, human; details: target to effector ratio 1:50
Procedure: In this example, anti-CD70 monoclonal antibodies were tested for the ability to kill CD70+ cell lines in the presence of effector cells via antibody dependent cellular cytotoxicity (ADCC) in a fluorescence cytotoxicity assay.
Human effector cells were prepared from whole blood as follows. Human peripheral blood mononuclear cells were purified from heparinized whole blood by standard Ficoll-paque separation. The cells were resuspended in RPMI1640 media containing 10% FBS and 200 U/ml of human IL-2 and incubated overnight at 37° C. The following day, the cells were collected and washed four times in culture media and resuspended at 2×10^7 cells/ml. […]
The CD70+ cell lines ARH-77 (human B lymphoblast leukemia; ATCC Accession No. CRL-1621), HuT 78 (human cutaneous lymphocyte lymphoma; ATCC Accession No. TIB-161), Raji (human B lymphocyte Burkitt's lymphoma; ATCC Accession No. CCL-86) and a negative control cell line L540 (human Hodgkin's lymphoma; DSMZ Deposit No. ACC 72) were tested for antibody specific ADCC to the human anti-CD70 monoclonal antibodies using the Delfia fluorescence emission analysis as follows. […]
In this example, a defucosylated and non-defucosylated anti-CD70 monoclonal antibody was tested for the ability to kill CD70+cells in the presence of effector cells via antibody dependent cellular cytotoxicity (ADCC) in a fluorescence cytotoxicity assay […]

B1: 2H5 NF: 2H5 HuMAb lacking fucosyl residues, expressed in CHO cell line Ms704-PF (antibody, V domains shown)
VH: QVQLVESGGGVVQPGRSLRLSCAASGFTFSSYIMHWVRQAPGKGLEWVAVISYDGRNKYYADSVKGRFTISRDNSKNTLYLQMNSLRAEDTAVYYCARDTDGYDFDYWGQGTLVTVSS
VL: EIVLTQSPATLSLSPGERATLSCRASQSVSSYLAWYQQKPGQAPRLLIYDASNRATGIPARFSGSGSGTDFTLTISSLEPEDFAVYYCQQRTNWPLTFGGGTKVEIK
[1]; activated T cells
  antibody mediated cytotoxicity with addition of anti-CD16 antibody: blocked
[1]; target to effector ratio 1:50
  ADCC, % specific lysis of activated T cells: increased percentage of specific lysis
[2]
  ADCC, % lysis of ARH-77: increased percentage of specific lysis
